{"source": "paper doi:10.1101/2020.02.03.932012", "origin": "cited, not measured here", "assay_in_all_cases": "stability", "settings_in_all_cases": "single buried-residue variants, ligand-free as far as stated", "key": {"Lys62": {"target": "Lys62 (UniProt position 144, EASAFKKKMVE)"}, "Glu62": {"target": "Glu62 (UniProt position 144, EASAFEKKMVE)"}, "Glu66": {"target": "Glu66 (UniProt position 148, FTKKMEENAKK)"}, "Lys66": {"target": "Lys66 (UniProt position 148, FTKKMKENAKK)"}}, "data": [{"substance": "Staphylococcal nuclease Delta+PHS T62K (Staphylococcus aureus; G50F;V51N;P117G;H124L;S128A;del44-49;T62K)", "values": [{"measurement": "pKa", "setting": "Lys62", "value": 8.1}]}, {"substance": "Staphylococcal nuclease Delta+PHS T62E (Staphylococcus aureus; G50F;V51N;P117G;H124L;S128A;del44-49;T62E)", "values": [{"measurement": "pKa", "setting": "Glu62", "value": 7.7}]}, {"substance": "Staphylococcal nuclease Delta+PHS V66E (Staphylococcus aureus; G50F;V51N;P117G;H124L;S128A;del44-49;V66E)", "values": [{"measurement": "pKa", "setting": "Glu66", "value": 8.5}]}, {"substance": "Staphylococcal nuclease Delta+PHS V66K (Staphylococcus aureus; G50F;V51N;P117G;H124L;S128A;del44-49;V66K)", "values": [{"measurement": "pKa", "setting": "Lys66", "value": 5.7}]}]}
